B1: R4-4: fully human anti-CHI3L1 IgG1 mAb, Table 1 No. 9; heavy chain SEQ ID NO: 9, light chain SEQ ID NO: 10 (antibody, listed as Homo sapiens)
VH: EVQLLESGGGLLQPGGSLRLSCAASGLTFRNYAMTWVRQAPGKGLEWVSTISGNGDETFYADSVKGHFTISRDNSKDTVYLQMNSLRAEDTAVYYCAKGGHYSFFDSWGQGSPVTVSS
light: NFMLTQPHSVSESPGKTVTISCTRSSGSIASNYVQWYQQRPGSSPTTVIYEDNQRPSGVPDRFSGSIDSSSNSASLTISGLKTEDEADYYCQSYDSSNYVFGTGTKVTVLGQPKANPTVTLFPPSSEELQANKATLVCLISDFYPGAVTVAWKADGSPVKAGVETTKPSKQSNNKYAASSYLSLTPEQWKSHRSYSCQVTHEGSTVEKTVAPAECS
B2: 293R3-2: fully human anti-CHI3L1 IgG1 mAb, Table 1 No. 2; heavy chain SEQ ID NO: 65, light chain SEQ ID NO: 66 (antibody, listed as Homo sapiens)
VH: QVQLQESGPGLVEPSGTLSLTCAVSGGSISSSNWWSWVRQHPGKGLEWIGEIYHSGSTNYNPSLRSRVTISVDKSKNQFSLELSSVTAADTAVYYCAGDQRMEDDAFDIWGQGTMVTVSS
light: QSALTQPASVSGSPGQSITISCTGTSSDVGGYNYVSWYQQHPGKAPKLMIYDVSNRPSGVSNRFSGSKSGNTASLTISGLQAEDEADYYCSSYTSSSTLYVFGTGTKVTVLGQPKANPTVTLFPPSSEELQANKATLVCLISDFYPGAVTVAWKADGSPVKAGVETTKPSKQSNNKYAASSYLSLTPEQWKSHRSYSCQVTHEGSTVEKTVAPTECS
B3: 293R3-4: fully human anti-CHI3L1 IgG1 mAb, Table 1 No. 4; heavy chain SEQ ID NO: 73, light chain SEQ ID NO: 74 (antibody, listed as Homo sapiens)
VH: EVQLVQSGAEVKKPGATVKISCKVSGYSFTDYYIHWVQQAPGKGLEWMGFVDPENGETIYAEKFQGRVTITADTSTDTAYMELSSLRSDDTAVYYCATDRDYDDSSGNAFDIWGQGTMVTVSS
light: SYELTQPPSVSVSTGQTATITCSGDILGDEYAFWYQQKAGQSPVLVIYLDTRRPSGIPERFSGSNSGDTATLTISETQPVDEAVYFCQGWDSSTALYVFGTGTKVTVLGQPKANPTVTLFPPSSEELQANKATLVCLISDFYPGAVTVAWKADGSPVKAGVETTKPSKQSNNKYAASSYLSLTPEQWKSHRSYSCQVTHEGSTVEKTVAPTECS
B4: R4-54: fully human anti-CHI3L1 IgG1 mAb, Table 1 No. 34; heavy chain SEQ ID NO: 33, light chain SEQ ID NO: 34 (antibody, listed as Homo sapiens)
VH: QVQLVESGGGVVQPGRSLRLSCAASGFTFSSYGMHWVRQAPGKGLEWVAVISYDGSDKDYADSVKGRFTISRDNSKNTLFLQMNSLRAEDTAVYYCARDDYDSTYYFDNWGQGTTVTVSS
light: SYELTQPPSVSVSPGQTASITCSGDILADQYASWYQQKPGQSPVLVIYHDTKRPSGVPERFSGSTSGNTATLTISGTQAMDEAAYYCQAWDINTAWVFGGGTQLTVLGQPKAAPSVTLFPPSSEELQANKATLVCLISDFYPGAVTVAWKADSSPVKAGVETTTPSKQSNNKYAASSYLSLTPEQWKSHRSYSCQVTHEGSTVEKTVAPTECS

The molecules below were run on SW480 and SW620 cells (assay: rCHI3L1-induced foci formation). Conditions: not given.
Type: cell-based, human

| Molecule | number of foci |
| --- | --- |
| B1 | decreased in a dose-dependent manner |
| B2 | decreased in a dose-dependent manner |
| B3 | decreased in a dose-dependent manner |
| B4 | decreased in a dose-dependent manner |

What follows are molecules tested against human chitotriosidase-1 (CHIT1) (Homo sapiens, UniProt Q13231) (assay: ELISA binding specificity, CHIT1). Conditions: mAbs 1 μg/ml; coated protein 2.5 μg/ml to 0 μg/ml.
Protocol: (§1) Four selected clones of mAbs including R4-4, R4-54, 293R3-2, and 293R3-4 were further tested for blocking effect on human colorectal (HCT116, SW480, and SW620) and pancreatic cancer cell lines (PANC1 and MiaPaCa-2). […] P values were determined by one-way ANOVA. * P<0.05, ** P<0.01, *** P<0.001, **** P<0.0001. For binding specificity examination, we further coated different concentration of recombinant CHI3L1 protein, and two other major proteins in chitinase family including human chitotriosidase-1 (CHIT1) and CHI3L2 from 2.5 μg/ml to 0 μg/ml, on 96-well plate.

Chain of human chitotriosidase-1 (CHIT1) (Q13231 22-466): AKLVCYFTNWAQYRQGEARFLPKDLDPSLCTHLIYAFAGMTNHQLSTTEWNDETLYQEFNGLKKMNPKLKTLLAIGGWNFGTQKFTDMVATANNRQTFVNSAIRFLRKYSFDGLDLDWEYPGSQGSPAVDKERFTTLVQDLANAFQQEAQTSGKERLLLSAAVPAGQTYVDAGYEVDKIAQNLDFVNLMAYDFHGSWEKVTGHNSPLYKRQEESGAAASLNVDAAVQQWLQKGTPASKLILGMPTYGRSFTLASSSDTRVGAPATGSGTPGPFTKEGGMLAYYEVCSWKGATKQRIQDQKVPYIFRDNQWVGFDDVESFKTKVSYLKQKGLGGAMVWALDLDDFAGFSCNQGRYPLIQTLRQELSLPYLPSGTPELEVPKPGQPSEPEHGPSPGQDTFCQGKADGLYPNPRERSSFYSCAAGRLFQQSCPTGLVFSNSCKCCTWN

| Molecule | binding specificity: recognition of CHIT1 |
| --- | --- |
| B1 | no other chitinase proteins |
| B2 | no other chitinase proteins |
| B3 | no other chitinase proteins |
| B4 | no other chitinase proteins |

These molecules were tested against recombinant CHI3L1 protein (Homo sapiens, UniProt P36222) (assay: ELISA binding specificity, CHI3L1). Conditions: mAbs 1 μg/ml; coated protein 2.5 μg/ml to 0 μg/ml.
Protocol: as §1

Chain of recombinant CHI3L1 protein (P36222 22-383): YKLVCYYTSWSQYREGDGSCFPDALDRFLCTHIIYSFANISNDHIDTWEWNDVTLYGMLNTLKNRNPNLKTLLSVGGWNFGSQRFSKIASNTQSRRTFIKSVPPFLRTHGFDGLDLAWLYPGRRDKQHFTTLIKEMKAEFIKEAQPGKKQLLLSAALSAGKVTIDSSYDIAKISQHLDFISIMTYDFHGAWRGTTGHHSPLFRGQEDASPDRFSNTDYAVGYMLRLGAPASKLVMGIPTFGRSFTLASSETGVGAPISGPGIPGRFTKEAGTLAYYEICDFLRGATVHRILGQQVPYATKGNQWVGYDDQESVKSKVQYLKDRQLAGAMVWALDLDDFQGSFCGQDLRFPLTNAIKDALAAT

| Molecule | binding specificity: recognition of CHI3L1 |
| --- | --- |
| B1 | specifically recognized CHI3L1 |
| B2 | specifically recognized CHI3L1 |
| B3 | specifically recognized CHI3L1 |
| B4 | specifically recognized CHI3L1 |

Each molecule was assayed against T1, hCHI3L1/flag-His (Homo sapiens, UniProt P36222) (assay: ForteBio biolayer interferometry binding analysis). Conditions: not given.
T1 construct: human CHI3L1 extracellular domain fused with flag and His tag
Protocol: Anti-CHI3L1 mAbs were loaded at 5 μg/mL on AHC (Anti-Human IgG Fc Capture, ForteBio, Cat #18-5060) for signal reach to approximate 0.5 nm. Sensors then were exposed to human CHI3L1 extracellular domain fused with flag and His tag recombinant protein, hCHI3L1/flag-His, solutions at 10 nM with 2 time serial dilution for 7 concentrations. Measurement were performed as follows: 1 min baseline in kinetic buffer, 5 minute association in 7 different concentrations hCHI3L1/flag-His and 5 minute dissociation into kinetic buffer. The kinetic parameters were calculated and produced by Octet Data Acquisition and Analysis Software.

T1 sequence (P36222 22-383): as above

| Molecule | binding kinetics profile compare to other mAbs |
| --- | --- |
| B1 | slower on-rate (kon) and off-rate (koff) |

Same assay, conditions: mAb loaded on AHC sensor, analyte hCHI3L1

| Molecule | koff [s⁻¹] | kon [M⁻¹ s⁻¹] |
| --- | --- | --- |
| B1 | 0.000353 |  |
| B2 | 0.00302 | 1.08e+06 |
| B3 | 0.00722 | 1.83e+06 |
| B4 | 0.0065 | 1.54e+06 |

These molecules were tested on PANC1 and H460 cells (assay: CCK-8 cell viability assay with rCHI3L1). Conditions: PANC1 and H460, rCHI3L1 with mAbs at two doses.
Type: cell-based, human
Protocol: PI3K/AKT/mTOR signaling pathway is important in regulating cell proliferation, survival and migration (Xu et al. 2020). Therefore, we investigated the effect of four selected mAbs on cancer cell behaviors. Human pancreatic (PANC1) and large cell cancer of the lung (H460) cells were treated with rCHI3L1 only or together with mAbs at two doses, and then subjected to cell counting kit 8 (CCK-8) cell viability assay. […] P values were determined by one-way ANOVA. * P<0.05, ** P<0.01, *** P<0.001, **** P<0.0001.

| Molecule | cell viability (CCK-8) |
| --- | --- |
| B1 | reduced the viability |
| B2 | reduced the viability |
| B3 | reduced the viability |
| B4 | reduced the viability |

These molecules were tested against T2, CHI3L1 binding to IL-13Rα2 on A549 cell line (Homo sapiens, UniProt P36222) (assay: Functional screen: block of CHI3L1 binding to IL-13Rα2 on A549 cell line). Conditions: A549 cells, compared with CHI3L1 only.
T2 construct: host or cells: A549 cells carry the receptor
Type: cell-based
From the text: CHI3L1 is known to associate with different receptors, such as IL-13Rα2 (He et al. 2013), CRTH2 (Zhou et al. 2015), TMEM219 (Lee et al. 2016), and galectin-3 (Zhou et al. 2015). […] Therefore, purified antibody leads were functionally screened for their ability to block CHI3L1 binding to IL-13Rα2 on A549 cell line (FIG. 3A). […] The sequences and defied CDR regions among those monoclonal antibodies are listed and summarized in the sequences list (SEQ ID NOs: 1 to 88) and Table 2, respectively. Anti-CHI3L1 clone R4-2 heavy chain (SEQ ID NO: 1), anti-CHI3L1 clone R4-2 light chain (SEQ ID NO: 2), anti-CHI3L1 clone R4-4 heavy chain (SEQ ID NO: 9), anti-CHI3L1 clone R4-4 light chain (SEQ ID NO: 10), anti-CHI3L1 clone R4-39 heavy chain (SEQ ID NO: 17), anti-CHI3L1 clone R4-39 light chain (SEQ ID NO: 18), anti-CHI3L1 clone R4-53 heavy chain (SEQ ID NO: 25), anti-CHI3L1 clone R4-53 light chain (SEQ ID NO: 26), anti-CHI3L1 clone R4-54 heavy chain (SEQ ID NO: 33), anti-CHI3L1 clone R4-54 light chain (SEQ ID NO: 34), anti-CHI3L1 clone R4-62 heavy chain (SEQ ID NO: 41), anti-CHI3L1 clone R4-62 light chain (SEQ ID NO: 42), anti-CHI3L1 clone R4-63 heavy chain (SEQ ID NO: 49), anti-CHI3L1 clone R4-63 light chain (SEQ ID NO: 50), anti-CHI3L1 clone R4-93 heavy chain (SEQ ID NO: 57), anti-CHI3L1 clone R4-93 light chain (SEQ ID NO: 58), anti-CHI3L1 clone 293R3-2 heavy chain (SEQ ID NO: 65), anti-CHI3L1 clone 293R3-2 light chain (SEQ ID NO: 66), anti-CHI3L1 clone 293R3-4 heavy chain (SEQ ID NO: 73), anti-CHI3L1 clone 293R3-4 light chain (SEQ ID NO: 74), anti-CHI3L1 clone 293R3-5 heavy chain (SEQ ID NO: 81), and anti-CHI3L1 clone 293R3-5 light chain (SEQ ID NO: 82) are shown in sequence listing.

T2 sequence (P36222 22-383): as above

| Molecule | CHI3L1 neutralizing activity |
| --- | --- |
| B2 | best neutralizing activity |
| B3 | best neutralizing activity |
| B4 | best neutralizing activity |

Each molecule was assayed on PANC1 cells (assay: Immunoblot of rCHI3L1-induced AKT and ERK phosphorylation, PANC1). Conditions: PANC1, rCHI3L1 100 ng/ml, 20 minutes, different dose of mAbs.
Type: cell-based, human
Protocol: The involvement of CHI3L1 in intracellular signaling pathways has been reported. For example, CHI3L1 binding to CD44 activates protein kinase B (AKT) and extracellular signal-regulated kinase (ERK) signaling to promote cancer progression (Chen, Jiang et al. 2021). Thus, we tested whether mAb clones R4-4, R4-54, 293R3-2, and 293R3-4 could attenuate AKT and ERK phosphorylation in human pancreatic (PANC1), colorectal (HCT116), and lung (A549) cancer cell lines. PANC1 cells were treated with rCHI3L1 (100 ng/ml) only or rCHI3L1 with different dose of mAbs as indicated for 20 minutes.

| Molecule | p-AKT and p-ERK levels induced by rCHI3L1 |
| --- | --- |
| B1 | inhibited p-AKT and p-ERK levels induced by rCHI3L1 in a dose dependent manner |
| B2 | inhibited p-AKT and p-ERK levels induced by rCHI3L1 in a dose dependent manner |
| B3 | inhibited p-AKT and p-ERK levels induced by rCHI3L1 in a dose dependent manner |
| B4 | inhibited p-AKT and p-ERK levels induced by rCHI3L1 in a dose dependent manner |

Source: US20240400717A1, “Antibody Binding to CHI3L1 for Treating Cancer” (National Cheng Kung University, priority 2021, published 2024)
